Data set [1] in a line: flow cytometry of surface 4-1BB, Jurkat. Particulars: glycan lost; control: wild type. In general terms: A flow cytometer gives signals particle by particle.
Data set [2] is described as follows: immunoblot of total 4-1BB, Jurkat. The note with it: glycan lost; control: wild type. (Immunoblotting shows a protein as a band on a membrane.)

With 4-1BB (CD137/TNFRSF9): N138Q, the localisation_or_trafficking result in data set [1] is “decreases”. Moreover, the expression_or_secretion result in data set [2] is recorded as “no change”.
For the substance 4-1BB (CD137/TNFRSF9): N149Q, the localisation_or_trafficking entry in data set [1] is “no change”.

These data come from publication PMC8750214.
